In assay [1] the target is T1, Human LILRB2 on primary human myeloid cells (human, UniProt Q8N423 22-597).
T1 construct: whole, on cells; the cell type is named under assay; also called LILRB2 on monocytes, M0 and M2c macrophages, myeloid dendritic cells, neutrophils
Nature of the assay: flow cytometry, AF647-conjugated antibody on human M0 macrophages (7 subjects), average. As for the experimental part: (§1) Anti-LILRB2 antibodies were evaluated for their ability to bind myeloid cell subsets expressing LILRB2, including monocytes, M0 macrophages, and M2c macrophages. M2c macrophages are used as a surrogate for tumor-associated macrophages, a suppressive macrophage commonly found in the tumor microenvironment. Frozen monocytes were removed from storage in vapor phase liquid nitrogen and thawed by gentle swirling in a water bath at 37° C., then resuspended in X-VIVO™ 15 media with 10% FBS. PBMC were placed in a 15 mL conical tube and centrifuged at 300×g for 5 minutes, then supernatant was removed. Cells were resuspended in Assay Medium (X-VIVO™ 15+10% FBS) at a cell density of 2.5×10⁵ cells/mL. Cells were plated into 96-well flat bottom plates at 100 μL/well (25K cells/well). M0 and M2c macrophages were generated as described in Example 10 and collected from flasks by incubation for 15 min at RT in Macrophage Detachment Solution DXF, then removed from the flask into X-VIVO™ 15 medium. Following centrifugation, the cells were resuspended in FACS Blocking Buffer D (FACS Buffer+10% FBS+0.5 mg/mL human IgG1) then incubated at 4° C. for 30 minutes. […]

Assay [2] addresses T1, Human LILRB2 on primary human myeloid …. Nature of the assay: flow cytometry, AF647-conjugated antibody on human monocytes (15 subjects), average. The method, then:
as §1
(In general: In flow cytometry, cells or beads pass a laser one at a time.)

In assay [3] the target is T2, Recombinant human LILRB2 protein (ELISA antigen) (human, UniProt Q8N423 22-460).
T2 construct: also called LILRB2-His; recombinant LILRB2
Briefly: ELISA, plate-coated recombinant human LILRB2. As for the experimental part:
To confirm binding to human and cynomolgus LILRB2, antibodies in supernatants were evaluated for binding by enzyme-linked immunosorbent assay (ELISA). Recombinant LILRB2 proteins (human: SEQ ID NO: 48; cynomolgus) were diluted in PBS to 2 μg/mL and added to 384-well high-binding ELISA plates (Greiner Bio-One Microlon™) at 25 μL/well and incubated at 4° C. overnight. The plates were washed three times with Wash Buffer (0.05% Tween® 20 in PBS), using a microplate washer and then blocked with 90 μL/well of ELISA Blocking Buffer A (1% BSA in PBS) for 1 hour at room temperature (RT). After blocking, 25 μL/well of LILRB2 antibodies or isotype control were added to the plates and incubated for 1 hour at RT. After primary antibody binding, plates were washed three times with Wash Buffer using a microplate washer. Secondary detection antibody (HRP-goat anti-rabbit Fab fragment) was diluted to 1:3000 in assay diluent (1% BSA in PBS) and 25 μL/well was added to plates and incubated at RT protected from light for 1 hour. Following incubation, plates were washed four times with Wash Buffer, using a microplate washer. After removal of the final wash, 25 μL/well of 1-Step™ Ultra TMB-ELISA Substrate Solution (Thermo Fisher, No. 34028) was added and plates were incubated for 5-10 min at RT, protected from light. After development, the reaction was stopped by addition of 25 μL/well of 0.3 M HCl, and plates were read using an EnVision (Perkin Elmer) microplate reader at 450 nm. EC₅₀ values were calculated based on log concentration of the primary antibodies at optical density at 450 nm.
(§2) Select humanized variant antibodies were purified and tested for their ability to bind human LILRB2 by ELISA, using the method described in Example 2, and binding to HEK293T cells expressing human LILRB2, using the method described in Example 4. Representative data are shown for IgG4 variants in Table 6.
In general terms: ELISA stands for enzyme-linked immunosorbent assay.

The target in assay [4] is T3, Human LILRB2 on stably transduced HEK293T cells (human, UniProt Q8N423 22-597).
T3 construct: Lentiviral transduction (G&P Biosciences LTV2992); also called HEK293T-LILRB2; LILRB2-expressing HEK293T cells
Nature of the assay: flow cytometry, HEK293T cells stably expressing human LILRB2. The method, then: To confirm binding of LILRB2 antibodies, flow cytometry binding assays were performed using HEK293T cells stably expressing human LILRB2 (Example 3). […] The B2A-IgG1 and B2A-IgG4 chimeras bound the LILRB2-expressing HEK293T cells, with equivalent EC₅₀ values of 0.21 nM and 0.30 nM respectively.
as §2

T1 sequence (Q8N423 22-597): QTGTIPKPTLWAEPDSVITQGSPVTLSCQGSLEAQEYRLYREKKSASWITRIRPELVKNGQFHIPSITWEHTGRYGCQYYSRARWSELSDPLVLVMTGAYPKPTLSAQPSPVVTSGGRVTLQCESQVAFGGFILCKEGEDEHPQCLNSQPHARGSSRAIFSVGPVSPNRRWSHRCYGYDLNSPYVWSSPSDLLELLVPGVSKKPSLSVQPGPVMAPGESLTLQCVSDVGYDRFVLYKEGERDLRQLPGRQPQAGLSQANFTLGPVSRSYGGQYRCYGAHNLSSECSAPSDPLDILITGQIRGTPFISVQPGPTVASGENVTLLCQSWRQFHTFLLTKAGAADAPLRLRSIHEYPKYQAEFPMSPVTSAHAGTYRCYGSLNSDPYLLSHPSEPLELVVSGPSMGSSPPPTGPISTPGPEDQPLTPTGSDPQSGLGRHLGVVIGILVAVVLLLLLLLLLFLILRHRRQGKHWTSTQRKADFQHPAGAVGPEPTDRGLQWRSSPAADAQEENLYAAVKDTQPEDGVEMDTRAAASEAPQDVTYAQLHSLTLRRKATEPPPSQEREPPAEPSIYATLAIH
T3 sequence (Q8N423 other isoform, or with tags, fused parts or gaps limits assumed): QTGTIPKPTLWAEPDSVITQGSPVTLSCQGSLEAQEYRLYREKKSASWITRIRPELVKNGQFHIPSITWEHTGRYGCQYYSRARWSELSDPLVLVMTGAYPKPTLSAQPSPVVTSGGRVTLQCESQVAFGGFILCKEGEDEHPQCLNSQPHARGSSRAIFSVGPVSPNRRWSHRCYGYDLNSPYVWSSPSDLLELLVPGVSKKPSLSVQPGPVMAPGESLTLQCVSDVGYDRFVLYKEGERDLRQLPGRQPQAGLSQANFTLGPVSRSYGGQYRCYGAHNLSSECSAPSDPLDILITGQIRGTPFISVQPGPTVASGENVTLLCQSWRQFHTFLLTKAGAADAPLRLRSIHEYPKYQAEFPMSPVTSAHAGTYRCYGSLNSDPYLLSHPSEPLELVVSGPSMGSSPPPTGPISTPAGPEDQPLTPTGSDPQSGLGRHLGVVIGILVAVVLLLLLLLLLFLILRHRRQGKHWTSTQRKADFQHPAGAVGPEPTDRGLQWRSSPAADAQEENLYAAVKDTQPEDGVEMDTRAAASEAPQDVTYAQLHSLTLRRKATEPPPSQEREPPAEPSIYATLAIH
T2 sequence (Q8N423 other isoform, or with tags, fused parts or gaps limits assumed): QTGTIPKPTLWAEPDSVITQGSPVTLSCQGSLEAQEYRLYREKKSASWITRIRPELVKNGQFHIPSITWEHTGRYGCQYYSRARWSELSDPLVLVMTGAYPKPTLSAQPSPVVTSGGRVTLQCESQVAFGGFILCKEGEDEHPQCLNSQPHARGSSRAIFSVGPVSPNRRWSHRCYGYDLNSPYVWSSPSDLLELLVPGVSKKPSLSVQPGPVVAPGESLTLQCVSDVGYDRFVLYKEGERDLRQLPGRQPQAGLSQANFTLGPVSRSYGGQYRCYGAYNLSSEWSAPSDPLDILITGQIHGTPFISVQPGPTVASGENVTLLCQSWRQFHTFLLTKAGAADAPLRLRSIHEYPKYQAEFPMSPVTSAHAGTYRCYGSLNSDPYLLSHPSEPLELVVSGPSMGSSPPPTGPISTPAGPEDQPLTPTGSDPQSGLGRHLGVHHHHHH

B1: B2H1-55 (antibody, V domains shown)
VH: EVQLLESGGGLVQPGTSLTLSCAASGFSLSTYAMSWVRQAPGKGLEWIGWIYNDGSTYYAAWAKGRFTISKDTSKTTLYLQITSLRAEDTATYFCAREGDYIGYFNIWGQGTLVTVSS
VL: DVVMTQTPSSVSAALGGTVTIKCQASQSIGSNLAWYQLKPGQRPKLLIYAAATLASGGSSRFKGSGSGTDFTLTISSLEPADAATYYCQSYVSGSSDVAFGGGTEVVVK
notes: Humanized variant, human IgG1 / kappa; also called humanized variant B2H1-55; humanized LILRB2 antibody B2H1-55
Regarding B1, the results for the EC50 in assay [1] and in assay [2] were 0.0748 µg/mL and 0.0356 µg/mL, respectively.

B2: B2A-IgG4 (antibody)
heavy: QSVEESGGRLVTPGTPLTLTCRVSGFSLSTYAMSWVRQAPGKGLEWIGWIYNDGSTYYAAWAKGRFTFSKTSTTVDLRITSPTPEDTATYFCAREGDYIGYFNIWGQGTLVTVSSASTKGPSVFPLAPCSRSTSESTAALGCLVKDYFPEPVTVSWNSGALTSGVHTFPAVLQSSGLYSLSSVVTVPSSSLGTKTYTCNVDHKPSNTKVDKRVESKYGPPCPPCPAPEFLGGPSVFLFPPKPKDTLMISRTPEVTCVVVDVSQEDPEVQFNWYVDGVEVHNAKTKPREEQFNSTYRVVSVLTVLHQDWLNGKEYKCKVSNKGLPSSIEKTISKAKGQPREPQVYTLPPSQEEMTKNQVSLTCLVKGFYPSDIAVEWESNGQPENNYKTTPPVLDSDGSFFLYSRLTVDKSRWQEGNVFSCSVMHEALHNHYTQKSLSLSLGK
light: DVVMTQTPSSVSAALGGTVTIKCQASQSIGSNLAWYQLKPGQRPKLLIYAAATLASGGSSRFKGSGSGTDFTLTISDLECADAATYYCQSYVSGSSDVAFGGGTEVVVKRTVAAPSVFIFPPSDEQLKSGTASVVCLLNNFYPREAKVQWKVDNALQSGNSQESVTEQDSKDSTYSLSSTLTLSKADYEKHKVYACEVTHQGLSSPVTKSFNRGEC
notes: Rabbit variable regions on human IgG4 / kappa constant regions; also called B2A-IgG4 chimera; Parent B2A-IgG4
As to B2, in assay [3], the EC50 was 0.00235 µg/mL. In addition, in assay [4], the “BMAX [gMFI]” value came out at 12100 gMFI and the midpoint of the response, the EC50, lay at 0.00034 µg/mL.

One may read the EC50 as the midpoint of the concentration-response curve.
